T1: CD123-Fc recombinant protein (human, UniProt P26951 19-305)
T1 construct: construct not described; not shown: Fc part
T1 sequence (looked up): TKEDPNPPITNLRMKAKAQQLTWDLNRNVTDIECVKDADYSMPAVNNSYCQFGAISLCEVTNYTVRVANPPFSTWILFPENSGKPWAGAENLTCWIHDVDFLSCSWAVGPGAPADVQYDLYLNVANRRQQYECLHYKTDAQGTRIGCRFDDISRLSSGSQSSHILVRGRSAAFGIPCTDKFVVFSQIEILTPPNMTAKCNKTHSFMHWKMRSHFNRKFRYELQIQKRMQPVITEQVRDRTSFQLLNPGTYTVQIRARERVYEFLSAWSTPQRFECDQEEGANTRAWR

B1: anti-CD123 scFv-C27 (scFv)
scFv: EIVLTQSPGTVSLSPGERATLSCRASQRVSATYLAWYQQKPGQAPRLLMYGGSRRATGIPDRFSGSGSGTDFTLTIRRLEPEDSAVYYCQQYGSSPLTFGGGTKLEIKGGGGSGGGGSGGGGSQVQLVQSGSELKKPGASVKVSCKASGYTFTSYGISWVRQAPGQGLEWMGWISAYNGNTNYAQKLQGRVTMTTDTSTSTAYMELRSLRSDDTAVYYCARDPYDDYGGNSRDEEDAFDIWGQGTTVTVSS
notes: On mRNA-electroporated T cells as CAR
B2: anti-CD123 scFv-C21 (scFv)
scFv: QSVLTQPPSASGTPGQRVTISCSGSSSNVGGNPVYWYRQVPTAAPKLLVYGHNQRPPRDPDRFSGSKSGTSASLAISGLRSEDEADYYCAAWDDSLSGWVFGGGTELTVLGGGGSGGGGSGGGGSEVQLVESGGGLVQPGRSLRLSCAASGFTFDDYAMHWVRQAPGKGLEWVSGISWNSGSIGYADSVKGRFTISRDNAKNSLYLQMNSLRAEDTALYYCAKGRYVDIVATINDAFDIWGQGTMVTVSS
notes: as for B1
B3: anti-CD123 scFv-C29 (scFv)
scFv: QPVLTQPPSASGTPGQRVTISCSGSSSNIGSNYVYWYQQLPGTAPKLLIYRNNQRPSGVPDRFSGSKSGTSASLAISGLRSEDEADYYCAAWDDSLSGYVFGTGTKVTVLGGGGSGGGGSGGGGSEVHLVESGGGLVQPGRSLRLSCTASGFTFGDYAMSWVRQAPGKGLEWVGFIRSKAYGGTTEYAASVKGRFTISRDDSKSIAYLQMNSLKTEDTAVYYCTRDIGYYGSGSYSPFDYWGQGTLVTVSS
notes: as for B1
B4: anti-CD123 scFv-C26 (scFv)
scFv: QSVLTQPPSASGTPGQRVTISCSGSRSNIGSNTVSWYQQFPGTAPKLLIYLNNQRPSGVPDRFSGSKSGTSASLAISGLQSEDEAEYYCATWDDDLNGVFGGGTKLTVLGGGGSGGGGSGGGGSEVQLVESGGGLVQPGGSLRLSCAASGFTLSNFEMNWVRQAPGRGLEWVSYISATTSATSYADSVKGRFTISRDNAKNSLYLQMNSLRAEDTAVYYCARVRDGYNFGYYYYYMDVWGKGTTVTVSS
notes: as for B1
B5: anti-CD123 scFv-C19 (scFv)
scFv: DIRMTQSPSSLSASVGDRVTITCRASQDIRHDLGWYQQKPGKAPSLLMYATSTLQSGVPSRFSGSGSGTHFTLTISSLKPEDSATYYCLQDGDYPLTFGGGTKLEIKGGGGSGGGGSGGGGSQVQLVQSGGGVVQPGRSLRLSCAASGFTFSSYGMHWVRQAPGKGLEWVAVISYDGSNKYYADSVKGRFTISRDNSKNTLYLQMNSLRAEDTAVYYCAKDPSLIQYYYYGMDVWGQGTMVTVSS
notes: as for B1
B6: anti-CD123 scFv-C33 (scFv)
scFv: DIRLTQSPSSLSASVGDTITITCRASQDISSWIAWYQQKPGTAPRLLIYAASSLQSGVPSRFSGSGSGTDFTLTINSLHPEDFATYYCQQGSTFPLAFGGGTKVEIKGGGGSGGGGSGGGGSQVQLVQSGAEVKKPGSSVKVSCKASGGTFSSYAISWVRQAPGQGLEWMGGIIPIFGTANYAQKFQGRVTITADESTSTAYMELSSLRSEDTAVYYCARGLDNWNDVGWFDPWGQGTLVTVSS
notes: as for B1
B7: anti-CD123 scFv-C34 (scFv)
scFv: QSALTQPPSASGSPGQSVTISCTGTRSDVGAYNYVSWYQHHPGKAPKLMLYDVSKRPSGVSDRFSGSKSGNTASLTVSGLQSEDEANYYCSSYAGSGKYVFGSGTELTVLGGGGSGGGGSGGGGSEVHLVESGGGLVKPGGSLRLSCAASGFTFSDTWMSWVRQAPGKGLEWVGRIKSKTDGGTTNYAAPVKGRFTISRDDSKTTLFLQMNSLKTEDTAVYYCTGGDYPLFAYWGQGALVTVSS
notes: as for B1
B8: anti-CD123 scFv-C23 (scFv)
scFv: DILMTQSPSSLSASVGDRVTITCQASQDISNYLNWYQQKPGKAPKLLIYDASNLETGVPSRFSGSGSGTGFSFTISSLQPEDFATYYCQQYGNLPLTFGGGTKLEIKGGGGSGGGGSGGGGSQVQLVQSGAEVKKPGASVKVSCKASGYTFTSYGISWVRQAPGQGLEWMGWISAYNGNTNYAQKLQGRVTMTTDTSTSTAYMELRSLRSDDTAVYYCARDRIAAAEVYYYYGMDVWGQGTTVTVSS
notes: as for B1
B9: anti-CD123 scFv-C30 (scFv)
scFv: AIRLTQSPSSLSASVGDRVTITCQASQNINNYLNWYQQKSGKAPKLLIYDASNLEAGVPSRFSGSASGTDFTFTISSLQPEDIATYYCQQNDNLPLTFGQGTRLEIKGGGGSGGGGSGGGGSEVQLVESGGGVVRPGGSLRLSCAASGFTFGDYGMSWVRQAPGKGLEWVSGINWNGGSTGYADSVKGRFTISRDNAKNSLYLQMNSLRAEDTALYYCARDRAPDYGDYLQVGTTDYWGQGTLVTVSS
notes: as for B1
B10: anti-CD123 scFv-C24 (scFv)
scFv: DIQMTQSPSSLSASVGDRVTITCRASQSISSYLNWYQQKPGKAPKLLIHAASSLQSGVPSKFSGSGSGTDFTLTISSLQPEDFATYYCLQYKTYPYTFGPGTKVEIKGGGGSGGGGSGGGGSQVQLVQSGAEVKKPGSSVKVSCKASGGTFSSYAISWVRQAPGQGLEWMGGIIPIFGTANYAQKFQGRVTITADESTSTAYMELSSLRSEDTAVYYCARDSPSGSTNYYYYYMDVWGKGTTVTVSS
notes: as for B1
B11: anti-CD123 scFv-C32 (scFv)
scFv: QSVVTQPPSASGTPGQRVTISCSGSSSNIEGNTVSWYQQFPGAAPKLLIYSNSYRASGVPDRFSGSKSGTSASLAISELQSEDEADYYCSAWDDSLNGPVFGGGTKVTVLGGGGSGGGGSGGGGSEVQLVESGGGLVQPGGSLRLSCAASGFTFTSYAMNWVRQAPGKGLEWVSDISSSSSYIYYADSVKGRFTISRDNAKNSLYLQMNSLRAEDTAVYYCARDLYSGYDYGYYYGMDVWGQGTTVTVSS
notes: as for B1
B12: anti-CD123 scFv-C17 (scFv)
scFv: QSALTQPASVSGSLGQSITISCTGTSSDVGTYDYVSWYQQHPGKAPKLMIYDVTYRPSGVSHRFSGSKSGNTASLTISGLQADDEADYYCQQYNNWPPRYTFGQGTKVEIKGGGGSGGGGSGGGGSQVQLVQSGAEVEKPGASVKLSCTASGYNFNSYYMHWVRLTPGQGLEWMGLINPTNGRTTYAQKFQGRVTMTGDTSTRTVYLALSSLRSEDSALYYCARGSPPHIFDPDFDYWGQGTLVTVSS
notes: as for B1
B13: anti-CD123 scFv-C18 (scFv)
scFv: QSALTQPASVSGSPGQSITISCTGTSSDVGGYNYVSWYQQHPGKAPKLMIYDVSNRPSGVSNRFSGSKSGNTASLTISGLQAEDEADYYCSSYTSSSTLFVFGTGTELTVLGGGGSGGGGSGGGGSQVQLQESGPGLVKPSQTLSLTCTVSGGSISSGDYYWSWIRQSPGKGLEWIGYIHSTGTTYYNPSLKSRLTISLDTSKNQFSLKLNSVTAADTAVYYCARGGVGTIFNYWGQGTLVTVSS
notes: as for B1

Each binder was assayed against T1, CD123-Fc recombinant protein (assay: flow cytometry of T cells electroporated with CAR mRNA, stained with CD123-Fc + PE-anti-hIgG-Fc; Mock 0.36).
Experimental: (§1) The CD123 CAR mRNAs obtained in Example 35 above were each introduced into T cells by electroporation according to the following procedures: T cells were collected, washed with the Opti-MEM medium, and resuspended at 1×10e⁷/mL with the Opti-MEM medium; 10 μg of RNA and 100 μL of T cells were aliquoted, mixed well, and electroporated under the following parameters (BTX machine): 500 V, 0.7 ms; the cells were then transferred to a pre-warmed medium and cultured at 37° C. The binding of CD123 CART cells to the CD123-Fc recombinant protein was detected by FACS staining. […] Empty vector (Mock) was a control T cell without CAR molecule. A549 tumor cells were electroporated with different amounts of CD123 mRNA. The electroporation procedure was the same as described above, and only the parameters were changed, with the parameters 300 V, 0.5 ms used. CD123 expression in A549 tumor cells was detected by FACS staining of isotype or anti-CD123 antibodies and A549 cells electroporated with different amounts of CD123 mRNA. […] The cytotoxicity of CD123 CART cells against tumor cells was detected in an in vitro cytotoxicity assay. Tumor cells expressing EGFP or EGFP-A549 cells electroporated with different amounts of tumor antigen were seeded at 3000 cells/100 μL/well into a flat-bottom 96-well plate; CART cells were diluted to a proper concentration and seeded to the 100 μL/well tumor cells according to different E/T ratios (e.g., 10:1, 3:1, or 1:1), and the co-culture plate was placed into the IncuCyte S3 machine and scanning parameters were set. After scanning for 3 days, the total green object integrated intensity (GCU×μm²/well) was analyzed to calculate the killing efficiency.

Binder | percent of cells in the CD123-Fc positive gate
B1 | 47.8%
B2 | 78.6%
B3 | 21.6%
B4 | 73.4%
B5 | 65.4%
B6 | 58.5%
B7 | 90.3%
B8 | 81.8%
B9 | 80.7%
B10 | 79.5%
B11 | 72.1%

What follows are binders tested against T1, CD123-Fc recombinant protein (assay: flow cytometry of T cells electroporated with CAR mRNA, stained with CD123-Fc + PE-anti-hIgG-Fc; Mock 1.68).
Experimental: as §1

Binder | percent of cells in the CD123-Fc positive gate
B12 | 97.5%
B13 | 87.8%
